In assay [1] the target is CCL21 of the four chemotaxis assays (recombinant human, recombinant cynomolgus monkey, natural human). Description: cell-based or functional assay.
Assay [2] concerns the target T1, natural human CCL21 (secreted and isolated from transfected HEK-293T cells) (human, UniProt O00585 24-134).
T1 sequence: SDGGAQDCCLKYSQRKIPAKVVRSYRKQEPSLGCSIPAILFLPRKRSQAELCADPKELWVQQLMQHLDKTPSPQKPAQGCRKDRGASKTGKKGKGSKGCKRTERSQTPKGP
Put plainly: cell-based or functional assay.

Assay [3] concerns the target T2, human CCL21 (human, UniProt O00585 24-134).
T2 sequence: T1 sequence
Put plainly: cell-based or functional assay.

Assay [4] addresses T3, cynomolgus monkey CCL21 (cynomolgus monkey, UniProt Q8HYP5 24-131 (rhesus entry)).
T3 sequence: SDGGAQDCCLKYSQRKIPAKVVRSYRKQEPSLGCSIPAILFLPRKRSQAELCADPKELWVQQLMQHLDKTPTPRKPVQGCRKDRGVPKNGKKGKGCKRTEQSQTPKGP
Description: cell-based or functional assay.

In assay [5] the target is T3, cynomolgus monkey CCL21. Description: SPR (Biacore T100), antibody captured on protein A, CCL21 as analyte, 1:1 model, two experiments.
For assay [6], the target named is T2, human CCL21. Put plainly: SPR (Biacore T100), antibody captured on protein A, CCL21 as analyte, 1:1 model, three experiments. A general note: In SPR one partner is held on a chip, and binding of the other changes the refractive index at the surface.

Substitutions are numbered along the chain they refer to.

B1: MOR06935_g3-23_g3j (antibody, V domains shown)
VH: EVQLLESGGGLVQPGGSLRLSCAASGFTFNSYSMSWVRQAPGKGLEWVSAISMEGYSKSYADSVKGRFTISRDNSKNTLYLQMNSLRAEDTAVYYCARGYGYYFDVWGQGTLVTVSS
VL: SYELTQPLSVSVALGQTARITCGGDSIGSQYASWYQQKPGQAPVLVIYDDNERPSGIPERFSGSNSGNTATLTISRAQAGDEADYYCGSWDSNPTHVFGGGTKLTVLG
notes: also called QBP359; FW repaired germlined MOR06935
For B1, in assay [1], the % inhibition of CCL21 mediated chemotaxis at 1:1 molar ratio, large scale batch, four assays is 81 to 100% and the IC50, inhibition of CCL21 mediated chemotaxis, large scale batch, four assays fell in the range of 11 to 45 nM. In addition, in assay [2], the “% inhibition of migration, natural hCCL21, H9 cells, 1:1 molar ratio (4th cell)” value (“% inhibition … 1:1 molar ratio (4th cell)” for short) came to 77% and the “% inhibition of migration, natural hCCL21, H9 cells, IgG at 2uM (4th cell)” value (shortened to “% inhibition of migration … at 2uM (4th cell)”) came out at 100%. Also, in assay [3], the “% inhibition of migration, recombinant hCCL21, H9 cells, 1:1 molar ratio (1st cell)” value (shortened to “% inhibition … 1:1 molar ratio (1st cell)”) is 61%; the “% inhibition of migration, recombinant hCCL21, H9 cells, IgG at 2uM (1st cell)” value (“% inhibition of migration … at 2uM (1st cell)” below) came out at 100%; the “% inhibition of migration, recombinant hCCL21, primary human T cells, 1:1 molar ratio (2nd cell)” value (“% inhibition … 1:1 molar ratio (2nd cell)” for short) is 86%; the “% inhibition of migration, recombinant hCCL21, primary human T cells, IgG at 2uM (2nd cell)” value (“% inhibition of migration … at 2uM (2nd cell)” below) amounted to 100%. Further, in assay [3], the “IC50, inhibition of CCL21-mediated calcium mobilization, human CCL21 on CHO-K1 cells with cynomolgus monkey CCR7” value stood at 252 nM and the “IC50, inhibition of CCL21-mediated calcium mobilization, human CCL21 on CHO-K1 cells with human CCR7” value came to 341 nM. Also, in assay [4], the “% inhibition of migration, recombinant cCCL21, H9 cells, 1:1 molar ratio (3rd cell)” value (from here on “% inhibition … 1:1 molar ratio (3rd cell)”) amounted to 96%; the “% inhibition of migration, recombinant cCCL21, H9 cells, IgG at 2uM (3rd cell)” value (shortened to “% inhibition of migration … at 2uM (3rd cell)”) amounted to 100%; the “IC50, inhibition of CCL21-mediated calcium mobilization, cynomolgus monkey CCL21 on CHO-K1 cells with cynomolgus monkey CCR7” value was found to be 62 nM; the “IC50, inhibition of CCL21-mediated calcium mobilization, cynomolgus monkey CCL21 on CHO-K1 cells with human CCR7” value worked out at 211 nM. In addition, in assay [5], the Kd – broadly, the constant that tells how readily two partners part at equilibrium – turned out to be 0.026 nM and the on-rate (kon) (commonly a measure of how fast the partners come together) was 9.1e+07 M⁻¹ s⁻¹. In assay [6], binding was put at a Kd of 0.03 nM and the kon was 6.8e+07 M⁻¹ s⁻¹.

B2: MOR08389_g3-23_g3j (antibody, human IgG1, lambda, V domains shown)
VH: B1 VH
VL: B1 VL with G88S, S92M, N93D, P94A, T95V, H96N
Turning to B2, in assay [2], the “% inhibition … 1:1 molar ratio (4th cell)” value was found to be 82%; the “% inhibition of migration … at 2uM (4th cell)” value was found to be 100%; the “IC50, inhibition of natural hCCL21-mediated migration of H9 cells” value turned out to be 34 nM. For the same molecule, in assay [3], the “% inhibition … 1:1 molar ratio (1st cell)” value is 94%; the “% inhibition of migration … at 2uM (1st cell)” value amounted to 94%; the “% inhibition … 1:1 molar ratio (2nd cell)” value was found to be 100%; the “% inhibition of migration … at 2uM (2nd cell)” value was 100%. Further, in assay [3], the “IC50, inhibition of recombinant hCCL21-mediated migration of H9 cells” value is 54.1 nM. Moreover, in assay [4], the “% inhibition … 1:1 molar ratio (3rd cell)” value stood at 100% and the “% inhibition of migration … at 2uM (3rd cell)” value was found to be 100%.

B3: MOR08378_g5-51_g2a2 (antibody, human IgG1, lambda, V domains shown)
VH: EVQLVQSGAEVKKPGESLKISCKGSGYSFNNYWISWVRQMPGKGLEWMGIIDPTNSQTTYSPSFQGQVTISADKSISTAYLQWSSLKASDTAMYYCARDGYPIFDYWGQGTLVTVSS
VL: QSALTQPASVSGSPGQSITISCTGTSSDLGGYNYVSWYQQHPGKAPKLMIYDVNYRPSGVSNRFSGSKSGNTASLTISGLQAEDEADYYCSSYTYYSNSGVFGGGTKLTVLG
Regarding B3, in assay [2], the “% inhibition … 1:1 molar ratio (4th cell)” value was found to be 64%; the “% inhibition of migration … at 2uM (4th cell)” value worked out at 100%; the “IC50, inhibition of natural hCCL21-mediated migration of H9 cells” value is 69 nM. In assay [3], the “% inhibition … 1:1 molar ratio (1st cell)” value stood at 87%; the “% inhibition of migration … at 2uM (1st cell)” value was 100%; the “% inhibition … 1:1 molar ratio (2nd cell)” value was determined as 100%; the “% inhibition of migration … at 2uM (2nd cell)” value was found to be 100%. Besides, the “IC50, inhibition of recombinant hCCL21-mediated migration of H9 cells” value in assay [3] amounted to 49.7 nM. Besides, in assay [4], the “% inhibition … 1:1 molar ratio (3rd cell)” value came to 100% and the “% inhibition of migration … at 2uM (3rd cell)” value was 100%.

B4: MOR08382_g3-23_gL6 (antibody, human IgG1, kappa, V domains shown)
VH: EVQLLESGGGLVQPGGSLRLSCAASGFTFSSYWLNWVRQAPGKGLEWVSYISNQGDDTSYADSVKGRFTISRDNSKNTLYLQMNSLRAEDTAVYYCARDYQYIGDSFDIWGQGTLVTVSS
VL: EIVLTQSPATLSLSPGERATLSCRASQYVSYVSLAWYQQKPGQAPRLLIYDASNRATGIPARFSGSGSGTDFTLTISSLEPEDFAVYYCQQYDDLSYTFGQGTKVEIKR
Turning to B4, in assay [2], the “% inhibition … 1:1 molar ratio (4th cell)” value came to 70%; the “% inhibition of migration … at 2uM (4th cell)” value was 100%; the “IC50, inhibition of natural hCCL21-mediated migration of H9 cells” value was found to be 66 nM. Further, in assay [3], the “% inhibition … 1:1 molar ratio (1st cell)” value was 97%; the “% inhibition of migration … at 2uM (1st cell)” value came to 97%; the “% inhibition … 1:1 molar ratio (2nd cell)” value is 100%; the “% inhibition of migration … at 2uM (2nd cell)” value was 100%. The “IC50, inhibition of recombinant hCCL21-mediated migration of H9 cells” value in assay [3] is 23.7 nM. Besides, in assay [4], the “% inhibition … 1:1 molar ratio (3rd cell)” value came to 100% and the “% inhibition of migration … at 2uM (3rd cell)” value was determined as 100%.
